The labels stand for the following.
B1: CPEB3 Ribozyme (parent)
chain: GGGGGCCACAGCAGAAGCGUUCACGUCGCGGCCCCUGUCAGAUUCUGGUGAAUCUGCGAAUUCUGCUGU

The variants in the data set derive from B1. Briefly: self-cleavage, relative activity (ratio to wild type); higher = more cleavage; co-transcriptional.
Consider GGGGGCCACAGCAGAAGCGUUCACGUCGCGGCCCCUGUCAGAUUCUGGUGAAUCGGCGAAUUAUGCUGU, for which the self-cleavage amounted to 0.345.

With GGGGGCCACAGCAGAAGCGUUCACGUCGCGGCCCCUGUCAGAUUCUGGUGAAUCAGCGAAUUCUGCUGA, the self-cleavage worked out at 1.02.

As to GGGGGCCACAGCAGAAGCGUUCACGUCGCGGCCCCUGUCAGAUUCUGGUGAAUCAGCGAAUUCUGCUGC, the self-cleavage stood at 1.06.

Take GGGGGCCACAGCAGAAGCGUUCACGUCGCGGCCCCUGUCAGAUUCUGGUGAAUUUGCGAAUUCUGCCGU: the self-cleavage was 1.01.

Regarding GGGGGCCACAGCAGAAGCGUUCACGUCGCGGCCCCUGUCAGAUUCUGGUGAAUUUGCGAAUUCUGCAGU, the self-cleavage stood at 0.993.

In the case of GGGGGCCACAGCAGAAGCGUUCACGUCGCGGCCCCUGUCAGAUUCUGGUGAAUUUGCGAAUUCUGCGGU, the self-cleavage was 0.987.

Take GGGGGCCACAGCAGAAGCGUUCACGUCGCGGCCCCUGUCAGAUUCUGGUGAAUUUGCGAAUUCUGCUUU: the self-cleavage turned out to be 1.06.

Take GGGGGCCACAGCAGAAGCGUUCACGUCGCGGCCCCUGUCAGAUUCUGGUGAAUUUGCGAAUUCUGCUCU: the self-cleavage was 1.02.

In the case of GGGGGCCACAGCAGAAGCGUUCACGUCGCGGCCCCUGUCAGAUUCUGGUGAAUUUGCGAAUUCUGCUAU, the self-cleavage is 1.02.

Take GGGGGCCACAGCAGAAGCGUUCACGUCGCGGCCCCUGUCAGAUUCUGGUGAAUUUGCGAAGUCUGCUGU: the self-cleavage was 0.779.

For the variant GGGGGCCACAGCAGAAGCGUUCACGUCGCGGCCCCUGUCAGAUUCUGGUGAAUUUGCGAAAUCUGCUGU, the self-cleavage stood at 0.933.

In the case of GGGGGCCACAGCAGAAGCGUUCACGUCGCGGCCCCUGUCAGAUUCUGGUGAAUCCGCGAAUUCUCCUGU, the self-cleavage was 0.416.

Turning to GGGGGCCACAGCAGAAGCGUUCACGUCGCGGCCCCUGUCAGAUUCUGGUGAAUCAGCGAAUUCUGCCGU, the self-cleavage came out at 0.906.

With GGGGGCCACAGCAGAAGCGUUCACGUCGCGGCCCCUGUCAGAUUCUGGUGAAUUUUCGAAUUCUGCUGU, the self-cleavage was 0.75.

For the variant GGGGGCCACAGCAGAAGCGUUCACGUCGCGGCCCCUGUCAGAUUCUGGUGAAUUUCCGAAUUCUGCUGU, the self-cleavage is 0.466.

GGGGGCCACAGCAGAAGCGUUCACGUCGCGGCCCCUGUCAGAUUCUGGUGAAUCGGGGAAUUCUGCUGU: the self-cleavage was 0.39.

Consider GGGGGCCACAGCAGAAGCGUUCACGUCGCGGCCCCUGUCAGAUUCUGGUGAAUCGGUGAAUUCUGCUGU, for which the self-cleavage amounted to 0.378.

For the variant GGGGGCCACAGCAGAAGCGUUCACGUCGCGGCCCCUGUCAGAUUCUGGUGAAUCAGCGAAUUCUGCUAU, the self-cleavage was 0.942.

GGGGGCCACAGCAGAAGCGUUCACGUCGCGGCCCCUGUCAGAUUCUGGUGAAUCAGCGAAUUCUGCUUU: the self-cleavage came out at 0.992.

With GGGGGCCACAGCAGAAGCGUUCACGUCGCGGCCCCUGUCAGAUUCUGGUGAAUCAGCCAAUUCUGCUGU, the self-cleavage stood at 0.993.

Regarding GGGGGCCACAGCAGAAGCGUUCACGUCGCGGCCCCUGUCAGAUUCUGGUGAAUCAGCUAAUUCUGCUGU, the self-cleavage is 0.988.

As for GGGGGCCACAGCAGAAGCGUUCACGUCGCGGCCCCUGUCAGAUUCUGGUGAAUCAGCGAAUUCCGCUGU, the self-cleavage was 0.479.

On to GGGGGCCACAGCAGAAGCGUUCACGUCGCGGCCCCUGUCAGAUUCUGGUGAAUCAGCGAAUUCGGCUGU, for which the self-cleavage is 0.613.

For GGGGGCCACAGCAGAAGCGUUCACGUCGCGGCCCCUGUCAGAUUCUGGUGAAUCCGCGAAUUGUGCUGU, the self-cleavage was found to be 0.532.

In the case of GGGGGCCACAGCAGAAGCGUUCACGUCGCGGCCCCUGUCAGAUUCUGGUGAAUCCGCGAAUUAUGCUGU, the self-cleavage was 0.464.

GGGGGCCACAGCAGAAGCGUUCACGUCGCGGCCCCUGUCAGAUUCUGGUGAAUCCGCGAAUUUUGCUGU: the self-cleavage stood at 0.85.

For the variant GGGGGCCACAGCAGAAGCGUUCACGUCGCGGCCCCUGUCAGAUUCUGGUGAAUCAGCGAUUUCUGCUGU, the self-cleavage came to 0.298.

With GGGGGCCACAGCAGAAGCGUUCACGUCGCGGCCCCUGUCAGAUUCUGGUGAAUCAGCGAGUUCUGCUGU, the self-cleavage turned out to be 0.615.

As for GGGGGCCACAGCAGAAGCGUUCACGUCGCGGCCCCUGUCAGAUUCUGGUGAAUCCGCGAAUGCUGCUGU, the self-cleavage turned out to be 0.559.

As to GGGGGCCACAGCAGAAGCGUUCACGUCGCGGCCCCUGUCAGAUUCUGGUGAAUCAGCGAAUGCUGCUGU, the self-cleavage is 0.531.

As to GGGGGCCACAGCAGAAGCGUUCACGUCGCGGCCCCUGUCAGAUUCUGGUGAAUCGGCGGAUUCUGCUGU, the self-cleavage was found to be 0.81.

For GGGGGCCACAGCAGAAGCGUUCACGUCGCGGCCCCUGUCAGAUUCUGGUGAAUCGGCGCAUUCUGCUGU, the self-cleavage turned out to be 0.364.

With GGGGGCCACAGCAGAAGCGUUCACGUCGCGGCCCCUGUCAGAUUCUGGUGAAUCCGCGAAUUCUGUUGU, the self-cleavage came to 0.816.

As for GGGGGCCACAGCAGAAGCGUUCACGUCGCGGCCCCUGUCAGAUUCUGGUGAAUCCGCGAAUUCUGAUGU, the self-cleavage came out at 0.342.

On to GGGGGCCACAGCAGAAGCGUUCACGUCGCGGCCCCUGUCAGAUUCUGGUGAAUCCGCGAAUUCUGGUGU, for which the self-cleavage was 0.437.

For GGGGGCCACAGCAGAAGCGUUCACGUCGCGGCCCCUGUCAGAUUCUGGUGAAUCAGCGAAUUCUGGUGU, the self-cleavage was found to be 0.68.

As to GGGGGCCACAGCAGAAGCGUUCACGUCGCGGCCCCUGUCAGAUUCUGGUGAAUCAGCGAAUUCUGAUGU, the self-cleavage is 0.561.

Turning to GGGGGCCACAGCAGAAGCGUUCACGUCGCGGCCCCUGUCAGAUUCUGGUGAAUCAGCGAAUUCUGUUGU, the self-cleavage stood at 0.944.

Regarding GGGGGCCACAGCAGAAGCGUUCACGUCGCGGCCCCUGUCAGAUUCUGGUGAAUCCGCGAAUUCUGCUCU, the self-cleavage amounted to 0.977.

With GGGGGCCACAGCAGAAGCGUUCACGUCGCGGCCCCUGUCAGAUUCUGGUGAAUCCGCGAAUUCUGCUUU, the self-cleavage was determined as 0.908.

Consider GGGGGCCACAGCAGAAGCGUUCACGUCGCGGCCCCUGUCAGAUUCUGGUGAAUCAGCGAAUUCUACUGU, for which the self-cleavage came out at 0.581.

Consider GGGGGCCACAGCAGAAGCGUUCACGUCGCGGCCCCUGUCAGAUUCUGGUGAAUUUGCGAAUCCUGCUGU, for which the self-cleavage was determined as 1.02.

For the variant GGGGGCCACAGCAGAAGCGUUCACGUCGCGGCCCCUGUCAGAUUCUGGUGAAUUUGCGAAUGCUGCUGU, the self-cleavage came to 0.951.

On to GGGGGCCACAGCAGAAGCGUUCACGUCGCGGCCCCUGUCAGAUUCUGGUGAAUUUGCGAAUACUGCUGU, for which the self-cleavage is 0.901.

For the variant GGGGGCCACAGCAGAAGCGUUCACGUCGCGGCCCCUGUCAGAUUCUGGUGAAUCCGCGACUUCUGCUGU, the self-cleavage was 0.306.

On to GGGGGCCACAGCAGAAGCGUUCACGUCGCGGCCCCUGUCAGAUUCUGGUGAAUCACCGAAUUCUGCUGU, for which the self-cleavage turned out to be 0.636.

With GGGGGCCACAGCAGAAGCGUUCACGUCGCGGCCCCUGUCAGAUUCUGGUGAAUCAUCGAAUUCUGCUGU, the self-cleavage stood at 0.694.

Consider GGGGGCCACAGCAGAAGCGUUCACGUCGCGGCCCCUGUCAGAUUCUGGUGAAUCAACGAAUUCUGCUGU, for which the self-cleavage was determined as 0.976.

Turning to GGGGGCCACAGCAGAAGCGUUCACGUCGCGGCCCCUGUCAGAUUCUGGUGAAUUUGCAAAUUCUGCUGU, the self-cleavage came out at 0.987.

As for GGGGGCCACAGCAGAAGCGUUCACGUCGCGGCCCCUGUCAGAUUCUGGUGAAUUUGCCAAUUCUGCUGU, the self-cleavage came to 0.97.

For the variant GGGGGCCACAGCAGAAGCGUUCACGUCGCGGCCCCUGUCAGAUUCUGGUGAAUCCUCGAAUUCUGCUGU, the self-cleavage worked out at 0.686.

Regarding GGGGGCCACAGCAGAAGCGUUCACGUCGCGGCCCCUGUCAGAUUCUGGUGAAUUCGCGAAUUCUGCUGU, the self-cleavage amounted to 0.888.

With GGGGGCCACAGCAGAAGCGUUCACGUCGCGGCCCCUGUCAGAUUCUGGUGAAUUAGCGAAUUCUGCUGU, the self-cleavage was 0.924.

Turning to GGGGGCCACAGCAGAAGCGUUCACGUCGCGGCCCCUGUCAGAUUCUGGUGAAUCCGAGAAUUCUGCUGU, the self-cleavage amounted to 0.367.

GGGGGCCACAGCAGAAGCGUUCACGUCGCGGCCCCUGUCAGAUUCUGGUGAAUUUGCGAAUUCUGCUGG: the self-cleavage was 1.06.

Consider GGGGGCCACAGCAGAAGCGUUCACGUCGCGGCCCCUGUCAGAUUCUGGUGAAUUUGCGAAUUCUGCUGC, for which the self-cleavage worked out at 1.07.

With GGGGGCCACAGCAGAAGCGUUCACGUCGCGGCCCCUGUCAGAUUCUGGUGAAUCAGCGAAAUCUGCUGU, the self-cleavage is 0.635.

Regarding GGGGGCCACAGCAGAAGCGUUCACGUCGCGGCCCCUGUCAGAUUCUGGUGAAUCAGCGAAGUCUGCUGU, the self-cleavage was determined as 0.6.

Turning to GGGGGCCACAGCAGAAGCGUUCACGUCGCGGCCCCUGUCAGAUUCUGGUGAAUCCGCGUAUUCUGCUGU, the self-cleavage came out at 0.545.

Turning to GGGGGCCACAGCAGAAGCGUUCACGUCGCGGCCCCUGUCAGAUUCUGGUGAAUCCGCGAAUUCUGCUGC, the self-cleavage amounted to 1.06.

GGGGGCCACAGCAGAAGCGUUCACGUCGCGGCCCCUGUCAGAUUCUGGUGAAUCCGCGAAUUCUGCUGA: the self-cleavage is 0.971.

Take GGGGGCCACAGCAGAAGCGUUCACGUCGCGGCCCCUGUCAGAUUCUGGUGAAUCCGCGAAUUCUGCUGG: the self-cleavage is 1.01.

In the case of GGGGGCCACAGCAGAAGCGUUCACGUCGCGGCCCCUGUCAGAUUCUGGUGAAUCAGCGAAUUAUGCUGU, the self-cleavage stood at 0.464.

Turning to GGGGGCCACAGCAGAAGCGUUCACGUCGCGGCCCCUGUCAGAUUCUGGUGAAUCAGCGAAUUGUGCUGU, the self-cleavage amounted to 0.438.

With GGGGGCCACAGCAGAAGCGUUCACGUCGCGGCCCCUGUCAGAUUCUGGUGAAUCGGCGACUUCUGCUGU, the self-cleavage came out at 0.296.

Regarding GGGGGCCACAGCAGAAGCGUUCACGUCGCGGCCCCUGUCAGAUUCUGGUGAAUCCGCGAAUUCGGCUGU, the self-cleavage was 0.531.

As for GGGGGCCACAGCAGAAGCGUUCACGUCGCGGCCCCUGUCAGAUUCUGGUGAAUCCGCGAAUUCCGCUGU, the self-cleavage was found to be 0.662.

Turning to GGGGGCCACAGCAGAAGCGUUCACGUCGCGGCCCCUGUCAGAUUCUGGUGAAUCCGCGAAAUCUGCUGU, the self-cleavage amounted to 0.604.

For the variant GGGGGCCACAGCAGAAGCGUUCACGUCGCGGCCCCUGUCAGAUUCUGGUGAAUCCGCGAACUCUGCUGU, the self-cleavage is 0.407.

GGGGGCCACAGCAGAAGCGUUCACGUCGCGGCCCCUGUCAGAUUCUGGUGAAUUUGCGAAUUCUCCUGU: the self-cleavage was 0.561.

For the variant GGGGGCCACAGCAGAAGCGUUCACGUCGCGGCCCCUGUCAGAUUCUGGUGAAUUUGCGAAUUCUACUGU, the self-cleavage came to 0.884.

Turning to GGGGGCCACAGCAGAAGCGUUCACGUCGCGGCCCCUGUCAGAUUCUGGUGAAUCCGCAAAUUCUGCUGU, the self-cleavage stood at 0.91.

Turning to GGGGGCCACAGCAGAAGCGUUCACGUCGCGGCCCCUGUCAGAUUCUGGUGAAUCCGCCAAUUCUGCUGU, the self-cleavage stood at 0.918.

Regarding GGGGGCCACAGCAGAAGCGUUCACGUCGCGGCCCCUGUCAGAUUCUGGUGAAUCCGCUAAUUCUGCUGU, the self-cleavage turned out to be 0.968.

With GGGGGCCACAGCAGAAGCGUUCACGUCGCGGCCCCUGUCAGAUUCUGGUGAAUCCGCGAAUUCUGCCGU, the self-cleavage came out at 0.912.

As for GGGGGCCACAGCAGAAGCGUUCACGUCGCGGCCCCUGUCAGAUUCUGGUGAAUCAGCGGAUUCUGCUGU, the self-cleavage worked out at 0.981.

Turning to GGGGGCCACAGCAGAAGCGUUCACGUCGCGGCCCCUGUCAGAUUCUGGUGAAUCAGCGCAUUCUGCUGU, the self-cleavage worked out at 0.394.

Take GGGGGCCACAGCAGAAGCGUUCACGUCGCGGCCCCUGUCAGAUUCUGGUGAAUCAGCGUAUUCUGCUGU: the self-cleavage turned out to be 0.456.

For the origin of these results see the RNAGym collection of RNA variant scans (doi:10.7554/elife.80360).
